Results as given in patent US20230265185A1 (NATIONAL RESEARCH COUNCIL OF CANADA, published 2023).

T1: hCD22 fragment Bin 7, IVR7 (aa561-668), displayed on yeast cells (human, UniProt P20273 580-687)
T1 construct: range 561-668; Range is counted on the mature ECD, not on the UniProt entry; on P20273 it would be 580-687 (my arithmetic); also called CD22 Sub-Domain 7; not shown: Aga2-HA display fusion partner of vector pPNL6; MYC tag
T1 sequence (looked up): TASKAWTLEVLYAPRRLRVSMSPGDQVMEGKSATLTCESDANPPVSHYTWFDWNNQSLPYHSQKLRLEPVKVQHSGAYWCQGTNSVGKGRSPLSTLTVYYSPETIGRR

T2: hCD22 fragment Bin 5, IVR5 (aa391-490), displayed on yeast cells (human, UniProt P20273 410-509)
T2 construct: range 391-490; Range is counted on the mature ECD, not on the UniProt entry; on P20273 it would be 410-509 (my arithmetic); not shown: Aga2-HA display fusion partner of vector pPNL6; MYC tag
T2 sequence (looked up): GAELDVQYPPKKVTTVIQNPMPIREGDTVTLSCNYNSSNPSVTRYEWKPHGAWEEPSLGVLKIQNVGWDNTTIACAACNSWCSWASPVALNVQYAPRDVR

T3: hCD22 fragment Bin 6, IVR6 (aa476-575), displayed on yeast cells (human, UniProt P20273 495-594)
T3 construct: range 476-575; Range is counted on the mature ECD, not on the UniProt entry; on P20273 it would be 495-594 (my arithmetic); also called CD22 Sub-Domain 6; not shown: Aga2-HA display fusion partner of vector pPNL6; MYC tag
T3 sequence (looked up): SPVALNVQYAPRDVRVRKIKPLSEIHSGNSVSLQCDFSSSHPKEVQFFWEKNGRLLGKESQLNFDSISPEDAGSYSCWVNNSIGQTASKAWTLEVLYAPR

T4: hCD22 fragment Bin 2, IVR2 (aa111-230), displayed on yeast cells (human, UniProt P20273 130-249)
T4 construct: range 111-230; Range is counted on the mature ECD, not on the UniProt entry; on P20273 it would be 130-249 (my arithmetic); not shown: Aga2-HA display fusion partner of vector pPNL6; MYC tag
T4 sequence (looked up): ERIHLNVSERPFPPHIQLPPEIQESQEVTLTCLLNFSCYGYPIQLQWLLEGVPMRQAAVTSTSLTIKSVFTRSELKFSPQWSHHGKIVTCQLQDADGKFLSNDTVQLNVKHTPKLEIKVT

T5: hCD22 fragment Bin 4, IVR4 (aa303-405), displayed on yeast cells (human, UniProt P20273 322-424)
T5 construct: Range is counted on the mature ECD, not on the UniProt entry; on P20273 it would be 322-424 (my arithmetic); also called CD22 Sub-Domain 4; not shown: Aga2-HA display fusion partner of vector pPNL6; MYC tag
T5 sequence (looked up): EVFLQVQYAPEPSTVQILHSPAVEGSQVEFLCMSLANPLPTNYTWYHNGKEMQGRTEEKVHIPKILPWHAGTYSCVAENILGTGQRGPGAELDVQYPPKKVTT


Assays:
[1] = target: T1, hCD22 fragment Bin 7, IVR7 (aa561-668), …; experiment: yeast display cell ELISA, OD on denatured over non-denatured CD22 fragment
Method: (§1) The YSD vector (pPNL6) was from The Pacific Northwest National Laboratory, USA. […] The HRP activity was assayed with substrate TMB (tetramethyl benzidine) according to the manufacture’s conditions and read at OD₄₅₀.
(§2) Table 7 depicts the assessment of the nature of the epitopes of CD22 sdAbs to determine if the epitopes for the sdAbs are continuous (linear) or non-continuous (conformational). […] The binding of each sdAb to native and denatured CD22 fragments was measured as OD₄₅₀, and the ratio of the binding to denatured CD22 to non-denatured CD22 was calculated, with the ratio ≥ 0.5 indicative linear (L), and the ratio < 0.5 indicative of conformational (C) epitopes.

[2] = target: T1, hCD22 fragment Bin 7, IVR7 (aa561-668), …; experiment: yeast display cell ELISA, heat denatured cells (80 C, 30 min)
Method: as §1, §2

[3] = target: T1, hCD22 fragment Bin 7, IVR7 (aa561-668), …; experiment: yeast display cell ELISA, native cells
Method: as §1, §2

[4] = target: T1, hCD22 fragment Bin 7, IVR7 (aa561-668), …; experiment: yeast display cell ELISA, biotinylated sdAb 250 nM
Method: as §1
(§3) The wells that gave rise to OD₄₅₀ above 0.25 were highlighted, indicating significant antibody-antigen interactions. All the sdAbs tested except hCd22_1ug-14 were assigned to specific Bin(s).

[5] = target: T2, hCD22 fragment Bin 5, IVR5 (aa391-490), …; experiment: yeast display cell ELISA
Method: as §1, §3

[6] = target: T3, hCD22 fragment Bin 6, IVR6 (aa476-575), …; experiment: yeast display cell ELISA
Method: as §1, §3

[7] = target: T4, hCD22 fragment Bin 2, IVR2 (aa111-230), …; experiment: yeast display cell ELISA
Method: as §1, §3

[8] = target: T5, hCD22 fragment Bin 4, IVR4 (aa303-405), …; experiment: yeast display cell ELISA
Method: as §1, §3

[9] = target: T3, hCD22 fragment Bin 6, IVR6 (aa476-575), …; experiment: yeast display cell ELISA, OD on denatured over non-denatured CD22 fragment
Method: as §1, §2

[10] = target: T3, hCD22 fragment Bin 6, IVR6 (aa476-575), …; experiment: yeast display cell ELISA, heat denatured cells (80 C, 30 min)
Method: as §1, §2

[11] = target: T3, hCD22 fragment Bin 6, IVR6 (aa476-575), …; experiment: yeast display cell ELISA, native cells
Method: as §1, §2

[12] = target: T3, hCD22 fragment Bin 6, IVR6 (aa476-575), …; experiment: yeast display cell ELISA, biotinylated sdAb 250 nM
Method: as §1, §3

[13] = target: T5, hCD22 fragment Bin 4, IVR4 (aa303-405), …; experiment: yeast display cell ELISA, biotinylated sdAb 250 nM
Method: as §1, §3

[14] = target: T1, hCD22 fragment Bin 7, IVR7 (aa561-668), …; experiment: yeast display cell ELISA
Method: as §1, §3

Binder	CD22 Ratio (D/ND) [1]	Heat Inactivated CD22 OD [2] [OD450]	Non denatured CD22 OD [3] [OD450]	OD450 [4] [OD450]	CD22 Ratio (D/ND) [9]	Heat Inactivated CD22 OD [10] [OD450]	Non denatured CD22 OD [11] [OD450]	OD450 [12] [OD450]	OD450 [13] [OD450]	binding result [5]	binding result [6]	binding result [7]	binding result [8]	binding result [14]
hCD221ug-10 (VHH, single biotin at the VHH C-terminal (biotinylation signal sequence), llama VHH, expressed in E. coli TG1, IMAC purified, monomeric SEC fraction; also called VHH # 23; 5-hCD22 1ug-10) VHH: QVQLVESGGGLVQAGGSLSVSCTASESTFSIMMGWFRQAPGKQREMVAVINSAGSTNYADSAEGRFTISRDLAKKTVSLQMNSLKPEDTAVYYCYVDGYFGQGTQVTVSS	0.091	0.32	3.5	0.75	–	–	–	–	–	no binding (tested: OD450 not above 0.25; sdAb 250 nM)	no binding (tested: OD450 not above 0.25; sdAb 250 nM)	no binding (tested: OD450 not above 0.25; sdAb 250 nM)	no binding (tested: OD450 not above 0.25; sdAb 250 nM)	–
hCD22pas-24 (VHH, single biotin at the VHH C-terminal (biotinylation signal sequence), llama VHH, expressed in E. coli TG1, IMAC purified, monomeric SEC fraction; also called VHH # 26; 8-hCD22 pas-24) VHH: QVQLVESGGGLVQAGGSLRLSCSASGITSSINSMGWHRQAPGKQRELVASIGRGGSGSTKYADSGKGRFLISRDNNKNILFLEMNSLKPEDTADYYCLEVTTDLSSYWGRGTQVTVSS	0.603	2.11	3.5	2.89	–	–	–	–	–	no binding (tested: OD450 not above 0.25; sdAb 250 nM)	–	no binding (tested: OD450 not above 0.25; sdAb 250 nM)	no binding (tested: OD450 not above 0.25; sdAb 250 nM)	–
hCD221ug-13 (VHH, single biotin at the VHH C-terminal (biotinylation signal sequence), llama VHH, expressed in E. coli TG1, IMAC purified, monomeric SEC fraction; also called VHH # 21; 1-hCD22 1ug-13) VHH: QVQLVESGGGLVQAGDSLRLSCAGSGGSFSSVTMAWFRQAPGKDREFVAAITWSSPSTYYADSVKGRFTISRDNAKNTVYLQMNSLKPEDTAVYYCAGGRTGRGTSADTDEYNYWGQGTQVTVSS	–	–	–	–	0.6	0.272	0.453	0.433	0.752	no binding (tested: OD450 not above 0.25; sdAb 250 nM)	–	no binding (tested: OD450 not above 0.25; sdAb 250 nM)	–	–
hCD22pas-32 (VHH, single biotin at the VHH C-terminal (biotinylation signal sequence), llama VHH, expressed in E. coli TG1, IMAC purified, monomeric SEC fraction; also called VHH # 15; 6-hCD22 pas-32) VHH: QVQLVESGGGLVQAGGSLRLSCAVSGRIFRSYVLGWFRQAPGKERELVARIGWSDTYYADSVKGRFTISRDNAKNTVDLQMNSLKPEDTAVYYCAANSPPYGPQRDEFGYWGQGTQVTVSS	–	–	–	–	–	–	–	–	–	no binding (tested: OD450 not above 0.25; sdAb 250 nM)	–	no binding (tested: OD450 not above 0.25; sdAb 250 nM)	no binding (tested: OD450 not above 0.25; sdAb 250 nM)	no binding (tested: OD450 not above 0.25; sdAb 250 nM)
hCD22pas-64 (VHH, single biotin at the VHH C-terminal (biotinylation signal sequence), llama VHH, expressed in E. coli TG1, IMAC purified, monomeric SEC fraction; also called VHH # 25; 7-hCD22 pas-64) VHH: QVQLVESGGGLVQAGGSLRLSCAASGSTFSLNTMAWYRQAPGNQREYVAAASSDGYTNYADSVRGRFTISRDNDKNTMYLQMNSLRPEDTAVYYCTWGTGRFADYIYWGQGTQVTVSS	–	–	–	–	0.684	2.04	2.98	1.38	–	no binding (tested: OD450 not above 0.25; sdAb 250 nM)	–	no binding (tested: OD450 not above 0.25; sdAb 250 nM)	no binding (tested: OD450 not above 0.25; sdAb 250 nM)	no binding (tested: OD450 not above 0.25; sdAb 250 nM)

The next lines start with results.

CD22 Ratio (D/ND) [1]	Heat Inactivated CD22 OD [2] [OD450]	Non denatured CD22 OD [3] [OD450]	OD450 [4] [OD450]	CD22 Ratio (D/ND) [9]	Heat Inactivated CD22 OD [10] [OD450]	Non denatured CD22 OD [11] [OD450]	OD450 [12] [OD450]	OD450 [13] [OD450]	Binder	binding result [5]	binding result [6]	binding result [7]	binding result [8]	binding result [14]
0.665	2.33	3.5	2.84	–	–	–	–	–	hCD221ug-61 (VHH, single biotin at the VHH C-terminal (biotinylation signal sequence), llama VHH, expressed in E. coli TG1, IMAC purified, monomeric SEC fraction; also called VHH # 14; 3-hCD22 1ug-61) VHH: QVQLVESGGGLVQAGGSLRLSCAASMSSFSQYVMYWYRQAPGKQRELVATITSYSNTNYADSVKGRFTISRDNAKSIAYLQMDSLKPEDTAVYYCNAQYGSTFIRNHWDDWGQGTQVTVSS	no binding (tested: OD450 not above 0.25; sdAb 250 nM)	no binding (tested: OD450 not above 0.25; sdAb 250 nM)	no binding (tested: OD450 not above 0.25; sdAb 250 nM)	no binding (tested: OD450 not above 0.25; sdAb 250 nM)	–
–	–	–	–	1	3.5	3.5	2.97	–	hCD221ug-36 (VHH, single biotin at the VHH C-terminal (biotinylation signal sequence), llama VHH, expressed in E. coli TG1, IMAC purified, monomeric SEC fraction; also called VHH # 22; 4-hCD22 1ug-36) VHH: EVQLVDSGGGLVQAGGSLRVSCEASGITFSRAAMGWYRQRPGKERERVAVVNSDSSTIYADSVKGRFTISRDNAKNTVYLQMNSLEPEDTAVYYCWSPGFGSYWGQGTQVTVSS	no binding (tested: OD450 not above 0.25; sdAb 250 nM)	–	no binding (tested: OD450 not above 0.25; sdAb 250 nM)	no binding (tested: OD450 not above 0.25; sdAb 250 nM)	no binding (tested: OD450 not above 0.25; sdAb 250 nM)
–	–	–	–	1.02	2.62	2.57	2.25	–	hCD221ug-80 (VHH, single biotin at the VHH C-terminal (biotinylation signal sequence), llama VHH, expressed in E. coli TG1, IMAC purified, monomeric SEC fraction; also called VHH # 1; 2-hCD22 1ug-80) VHH: QVQLVESGGGLVQPGGSLRLSCTFSGFTLDYYVMVWFRQAPGKEREAVSCITSDGVTYYADSVKGRFTISRDNAKNTVYLQMNRVKPEDTAVYYCAVDKPFYDGGIQYTCPVDFDSWGQGAQVTVSS	no binding (tested: OD450 not above 0.25; sdAb 250 nM)	–	no binding (tested: OD450 not above 0.25; sdAb 250 nM)	no binding (tested: OD450 not above 0.25; sdAb 250 nM)	–
